Measured values published in the supplement of paper PMC12042874.
± gives the uncertainty stated by the source.

Experiment: amyloid nucleation score (Sup35N fusion, yeast selection) (log enrichment); library NNK3; higher = more nucleation; inactive = no reads after selection
Summary of the method: (§1)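 Random libraries were run with three technical output replicates. In each, psi-negative yeast expressing Sup35N fused to peptides of 20 random codons were induced 24 hours with 100 μM copper sulfate and grown 7 days at 30°C on medium lacking adenine and uracil, and input and output plasmid inserts were Illumina-sequenced. The nucleation score is the DiMSum log enrichment of output over input reads, centred on the mode score of non-aggregating sequences, and sequences under 100 input reads were excluded.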
Substance RGLVLVFVREAYRREY has an amyloid nucleation score of 0.598 ± 0.29. With IWRLCNVPICPSLRGAGHYS the amyloid nucleation score was “inactive”. With DRVGRRLIGLRLAQLLGERF the amyloid nucleation score was “inactive”. With LNLQNVVYGTMSEHSASSVD the amyloid nucleation score was “inactive”. In the case of VFSGIL, the amyloid nucleation score is reported as “inactive”. For SFLRTVNGGRFSSVCSL, the amyloid nucleation score was “inactive”. In the case of NWYSLKGVISNFSAVFSHGY, the amyloid nucleation score is reported as “inactive”. In the case of RSIDGKSYNLAYLLGGLRNS, the amyloid nucleation score is reported as 2.56 ± 0.065. For TIHSRMGIVLYFFAIDCVR, the amyloid nucleation score was “inactive”. In the case of DDCTTVF, the amyloid nucleation score is reported as “inactive”. With VQGTTVDMDYYFTVSCLHAK the amyloid nucleation score was “inactive”. For FSFPCRTVAWFWYDFHFIGL, the amyloid nucleation score was “inactive”. SYSSDWVLLGGMFFAKY showed an amyloid nucleation score of 0.164 ± 0.56. With CKTIKVVLAALGFCYPQYSL the amyloid nucleation score was “inactive”. For YLVMRSKYLYRFYAMVLKDL, the amyloid nucleation score was “inactive”. With DSNLVFFGSIFFTVLMWLTK the amyloid nucleation score was “inactive”. SLLSIFVKGARLQISDVSQG gave an amyloid nucleation score of 0.773 ± 0.18. With MHYICAGSGSWAI the amyloid nucleation score was “inactive”. For RNCLIYGHNDILGISRLSDF, the amyloid nucleation score was “inactive”. With NSRARSSYRIMNWWLLFDMT the amyloid nucleation score was “inactive”. In the case of FSKIHI, the amyloid nucleation score is reported as “inactive”. In the case of FDTYTLSNTF, the amyloid nucleation score is reported as “inactive”. With DINAVT the amyloid nucleation score was “inactive”. With RSYRI the amyloid nucleation score was “inactive”. With SRPLEMVLLLSWWIMSRKIP the amyloid nucleation score was “inactive”. With FWMRFKHDW the amyloid nucleation score was 1.29 ± 0.16. For WDYKAGISSSLSAIGCLYGD, the amyloid nucleation score was “inactive”. For ATCWDEYDPRDPLA, the amyloid nucleation score was “inactive”. With GMAVVLSLAPAGRKRTTTNV the amyloid nucleation score was “inactive”. For RMRSWMGCGRHCLWRHLEEL, the amyloid nucleation score was “inactive”. With NSFDFYAAGPY the amyloid nucleation score was “inactive”. With RSAKAYLTLWCRMYNPRIYM the amyloid nucleation score was -0.345 ± 1.3. Substance KTCIVCMLHL has an amyloid nucleation score of 3.32 ± 0.068. With PDNFNSRFNTRFKTHTRHPT the amyloid nucleation score was “inactive”. For GASLYWIP, the amyloid nucleation score was 0.234 ± 0.88. In the case of GILCCAL, the amyloid nucleation score is reported as “inactive”. With FCLYTKLNVSIRGISDAYVY the amyloid nucleation score was “inactive”. In the case of SEIIHLGFYYDP, the amyloid nucleation score is reported as “inactive”. In the case of FKDMFPNLSTCLLIVRM, the amyloid nucleation score is reported as “inactive”. With TYHSCY the amyloid nucleation score was “inactive”. In the case of KGETEPYKDSMLQKLTGQLQ, the amyloid nucleation score is reported as “inactive”. In the case of SNLVDGMSWHHFKERIVMLD, the amyloid nucleation score is reported as “inactive”. In the case of EYQLYCVYHLYANLDTVVRT, the amyloid nucleation score is reported as “inactive”. In the case of TLRGMGQHRQR, the amyloid nucleation score is reported as “inactive”. WLSLFVIMPCLWGFCSMDSN gave an amyloid nucleation score of 1.47 ± 0.11. In the case of SEYFWLVWPSA, the amyloid nucleation score is reported as “inactive”. LNRVRSS gave an amyloid nucleation score of -0.108 ± 0.7. For GWMNACT, the amyloid nucleation score was 0.356 ± 0.34. With FPILS the amyloid nucleation score was “inactive”. With NCYDSW the amyloid nucleation score was “inactive”. In the case of IDTWFISFRCMFSGNYMYFL, the amyloid nucleation score is reported as “inactive”. With FLFLLWCNMMPEMYVIAMNI the amyloid nucleation score was “inactive”. Work on DLRGETNSYSGVCQERK yielded an amyloid nucleation score of 0.104 ± 0.69. In the case of RISLDNTWGFL, the amyloid nucleation score is reported as “inactive”. With SFDVLSRV the amyloid nucleation score was “inactive”. LWIVLQVHSFDVRFAQGFHI gave an amyloid nucleation score of 0.613 ± 0.17. In the case of ANHNLYRDDDREYFFMLCY, the amyloid nucleation score is reported as “inactive”. Substance VGSNSDSVCCSPVVAGFQWT has an amyloid nucleation score of 1.07 ± 0.1. For VAQRELWEEAIRCRYEH, the amyloid nucleation score was “inactive”. In the case of DEMRKGRWHGDRLGRSDRQE, the amyloid nucleation score is reported as “inactive”. In the case of GNVSCHFILGQRVHFPSCDF, the amyloid nucleation score is reported as 0.809 ± 0.29. With IFNNLTGFNNKGS the amyloid nucleation score was “inactive”. In the case of ILWMVSMLRYIIEG, the amyloid nucleation score is reported as “inactive”. With YTSGRSVSGRCHLWELKAIK the amyloid nucleation score was “inactive”. For NWDFFKLKVNSHLTYAHDHR, the amyloid nucleation score was “inactive”. For DKSMIFVFI, the amyloid nucleation score was 0.864 ± 0.22. In the case of FSCDHLGWLVVSVCSGLRWL, the amyloid nucleation score is reported as “inactive”. In the case of VFGPRRPMVNCSN, the amyloid nucleation score is reported as “inactive”. In the case of HLAMWFNHLSLDCL, the amyloid nucleation score is reported as “inactive”. In the case of NNLFWHNAVCLGALEEYLSK, the amyloid nucleation score is reported as “inactive”. With SLTYGRRWLFDWRSTMKGKA the amyloid nucleation score was “inactive”. In the case of MIYLYNKKYMSCRFDTCIIP, the amyloid nucleation score is reported as “inactive”. For FFFTATLNQLSYTYIFSKLA, the amyloid nucleation score was “inactive”. In the case of GVGATATTFWGVRWVRRSTN, the amyloid nucleation score is reported as “inactive”. In the case of ANSNVGSLF, the amyloid nucleation score is reported as “inactive”. For GIVRSVCYVNGCVLDHEVGI, the amyloid nucleation score was “inactive”. Work on VIWLGRRCTFLHKPTSRGQW yielded an amyloid nucleation score of 0.021 ± 0.6. In the case of CAYRLNVGSVRFGKMHPRRS, the amyloid nucleation score is reported as “inactive”. In the case of DSNWRNMRGLHFY, the amyloid nucleation score is reported as “inactive”. For SILLIFCLSKTRFSVMSFLP, the amyloid nucleation score was “inactive”. Work on VIMGDINQVAQPGDLRRFRC yielded an amyloid nucleation score of -0.423 ± 1.4. For DFHVLRYVLFRWMWIIWRKG, the amyloid nucleation score was “inactive”. With QLGDMNAAALITATASRLVM the amyloid nucleation score was “inactive”. For SWMVQLVNTGVRWLVLANDA, the amyloid nucleation score was “inactive”. With NIVLFGKRVNFFYLTNDVVK the amyloid nucleation score was 1.97 ± 0.067. With IMLLVGAWTVSYNSCGSDAR the amyloid nucleation score was “inactive”. In the case of IVSTWG, the amyloid nucleation score is reported as “inactive”.

Experiment: amyloid nucleation score (Sup35N fusion, yeast selection) (log enrichment); library NNK2; higher = more nucleation; inactive = no reads after selection
Summary of the method: as §1
Work on LNQNPLFTN yielded an amyloid nucleation score of -0.11 ± 0.76. For RMYLVGMLMHSLLEEMSKTA, the amyloid nucleation score was 4.76 ± 0.083. In the case of AHLVCRLYETMQLYLYLQWY, the amyloid nucleation score is reported as -1.01 ± 0.3. With NARVTGVF the amyloid nucleation score was “inactive”. In the case of VGIYMIWLISSS, the amyloid nucleation score is reported as “inactive”. For FDQSFFNLPQGTFLVLYSSA, the amyloid nucleation score was “inactive”. Substance VDYLRYLIWFNRS has an amyloid nucleation score of 0.058 ± 0.79. In the case of RLFCSAVAH, the amyloid nucleation score is reported as 0.308 ± 0.44. For LAYRKVLCMYSVSHSYTRAC, the amyloid nucleation score was “inactive”. In the case of FNVDKRPRSDVCLAGCISD, the amyloid nucleation score is reported as -0.825 ± 0.56. Substance MTDLLTMVAYRLKGSRVSSM has an amyloid nucleation score of 0.08 ± 0.37. For FGLDYVTYVRWAGVCHLLYF, the amyloid nucleation score was -0.56 ± 0.55. Substance MVLIYRLCQSLRLRHGVGVK has an amyloid nucleation score of 4.33 ± 0.1. FWYCTHTTSYDGTLNSEWVT showed an amyloid nucleation score of 0.307 ± 0.26. VWYITIYIWGMRRLIAWRMS showed an amyloid nucleation score of 0.31 ± 0.74. AWGHIHAVPMYNALLYNSHD gave an amyloid nucleation score of 0.695 ± 0.66. SYDLELAT gave an amyloid nucleation score of 0.667 ± 0.18. Work on SQRRKQLEYHAVLWY yielded an amyloid nucleation score of -0.289 ± 0.76. For CPLMNLYRNVFYVWKLNFLP, the amyloid nucleation score was “inactive”. DRRLCLCLLIMSC showed an amyloid nucleation score of -0.578 ± 0.79. Work on VRLSWCNMFNRVFPI yielded an amyloid nucleation score of 0.3 ± 0.8. With IVGHRVLACVRPRRVVTRYG the amyloid nucleation score was 0.118 ± 0.63. For SMGINSGGRWRADSVSVGLR, the amyloid nucleation score was 0.786 ± 0.23. FPGRSSCDHTAMWLL showed an amyloid nucleation score of 0.732 ± 0.4. Substance CEHDCSPTYDGLSYASFVRE has an amyloid nucleation score of 0.219 ± 0.5. Substance WFISPKDKGRASIHLNEYRW has an amyloid nucleation score of 3.97 ± 0.045. Work on PSVDCSEIKPIWNLVKYFLI yielded an amyloid nucleation score of -0.571 ± 0.26. Substance QNLCDCCKYQICSVLFMGHA has an amyloid nucleation score of 4.33 ± 0.082. With SWFWVPGNQLLMTIEGFQWS the amyloid nucleation score was -0.281 ± 0.35. For QTSYMDYKYRMGFLS, the amyloid nucleation score was -0.69 ± 0.63. ESRGSCSIKNYRLVWDC gave an amyloid nucleation score of -0.451 ± 0.74. NRLDNFRHQTEGKRRV gave an amyloid nucleation score of -0.841 ± 1.1. For FVYWFKYT, the amyloid nucleation score was -1.2 ± 1.1. FCCHHCITGITEKAN gave an amyloid nucleation score of 0.674 ± 0.36.
